Key:
GATA3 Western blot, JEG3 = conditions: control: untreated
[1] = CHX chase, Western blot, JEG3; conditions: control: untreated (respective controls)
[2] = GATA3 Western blot, JEG3; mRNA equal; conditions: glycan lost; control: WT-G plasmid
[3] = CHX chase, Western blot, JEG3, hypoxia; conditions: glycan lost; control: WT-G plasmid under 2% O2
[4] = CHX chase, Western blot, JEG3, normoxia; conditions: glycan lost; control: WT-G plasmid
[5] = Hypoxic rise of GATA3 protein, Western blot, JEG3; conditions: glycan lost; control: WT-G plasmid, 2% vs 21% O2
[6] = GATA3 Western blot, primary human trophoblasts; conditions: glycan gained; control: DMSO
[7] = CHX chase, Western blot, primary human trophoblasts; conditions: glycan gained; control: untreated (respective controls)

GATA3 (GATA binding protein 3): Ac45S (OGT inhibitor)
expression_or_secretion (GATA3 Western blot, JEG3; glycan lost): decreases | degradation_or_half_life ([1]; glycan lost): decreases

GATA3 (GATA binding protein 3): T322A-G
expression_or_secretion, fold_change [2]: decreases | degradation_or_half_life [3]: changes | degradation_or_half_life [4]: decreases | expression_or_secretion [5]: abolishes

GATA3 (GATA binding protein 3): TMG (OGA inhibitor)
expression_or_secretion (GATA3 Western blot, JEG3; glycan gained): increases | degradation_or_half_life ([1]; glycan gained): increases | expression_or_secretion [6]: increases | degradation_or_half_life [7]: increases
